The text below walks through data of patent publication US12624396B2, “Methods for alleviating facioscapulohumeral dystrophy (FSHD) by an antisense nucleic acid molecule inhibiting the expression of double homeobox 4 (DUX4)” (Fred Hutchinson Cancer Center, priority 2010, dated 2026).

Entries after “also recorded” stand apart in the source; their conditions may differ.

Series [1] relates to DUX4 core binding motif oligos (CSF1R, TRIM48). As to the kind of experiment: Electromobility shift assay with in vitro translated protein. Also noted: species or system human. Particulars: radiolabeled CSF1R and TRIM48 oligos, FIG. 15D. On the procedure:
EMSA was performed with ^32P-labeled 31-bp oligonucleotides from endogenous genomic sequences containing the putative DUX4 binding site as probes (sequences below; only forward shown). Radiolabeled probes were incubated with in vitro translated protein generated from pCS2-DUX4-fl or pCS2-DUX4-s^2 vectors using the TNT SP6 Coupled Wheat Germ Extract System (Promega) according to manufacturer's instructions. To obtain supershift of protein-DNA complexes, 0.1 μg of E14-3 anti-DUX4 rabbit monoclonal antibody was added to the mixtures. For competition experiments, excess unlabeled probes of either wild-type or mutant sequences were included in the binding reaction. The gels were prepared and run as previously described (Knoepfler et al., Nucleic Acids Res 27:3752-3761 (1999)).
Supershift with DUX4 antibody E14-3 confirmed the specificity of binding. […] (d) DUX4-s also binds the same core motifs; left, CSF1R; right, TRIM48. Supershift with anti-DUX4 N-terminus antibody E14-3 confirmed specificity of binding.

For series [2], the system named is DUX4 binding sites from TRIM48 and ZSCAN4. Nature of the series: Luciferase assay, pGL3-promoter reporter with TRIM48 or ZSCAN4 DUX4 binding sites in RD cells. Type of series: cell-based, human. Particulars: RD cells co-transfected with DUX4-s alone; FIG. 16. On the procedure:
(§1) Transient DNA transfections of RD cells were performed using SuperFect (Qiagen) according to manufacturer specifications. Briefly, 3×10^5 cells were seeded per 35 mm plate the day prior to transfection. […] Cells were lysed 24 h post-transfection in Passive Lysis Buffer (Promega). Luciferase activities were quantified using reagents from the Dual-Luciferase Reporter Assay System (Promega) following manufacturer's instructions. Light emission was measured using BioTek Synergy2 luminometer. Luciferase data are given as the averages ±SD of at least triplicates.
The 31 bp DUX4 binding site from TRIM48 (SEQ ID NO:96) or ZSCAN4 (SEQ ID NO:97) were inserted into the luciferase reporter construct upstream of the SV40 promoter, as shown in FIG. 16A.
(A) reporter construct structure; Genomic fragments near the TRIM48 (B) and ZSCAN4 genes (C) containing DUX4 binding sites were cloned into pGL3-promoter reporter vector (schematic, top) and transfected into human rhabdomyoscaroma cell line RD. […] TRIM48mut and ZSCAN4mut, mutated binding sites. Luciferase activity was set relative to control.

Another series deals with T1, DUX4-fl (Homo sapiens, UniProt Q9UBX2).
T1 construct: expressed in transfected cells; host or cells: human rhabdomyosarcoma cell line RD, transient transfection with pCS2-DUX4-fl
T1 sequence (Q9UBX2 whole entry): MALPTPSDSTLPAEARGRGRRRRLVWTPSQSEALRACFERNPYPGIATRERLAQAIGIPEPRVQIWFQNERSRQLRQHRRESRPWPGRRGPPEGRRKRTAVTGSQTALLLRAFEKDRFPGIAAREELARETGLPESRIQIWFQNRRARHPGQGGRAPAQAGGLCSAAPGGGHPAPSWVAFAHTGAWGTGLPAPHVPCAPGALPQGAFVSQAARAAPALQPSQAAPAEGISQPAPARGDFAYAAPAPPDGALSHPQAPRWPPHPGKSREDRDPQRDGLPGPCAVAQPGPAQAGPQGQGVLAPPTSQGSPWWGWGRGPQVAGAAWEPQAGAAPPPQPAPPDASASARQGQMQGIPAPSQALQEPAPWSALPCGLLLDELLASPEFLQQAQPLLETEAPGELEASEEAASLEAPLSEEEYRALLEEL
As to the kind of experiment: Luciferase assay, ZSCAN4 1.9 kb enhancer/promoter reporter, co-transfection of DUX4-fl and DUX4-s. Type of series: cell-based. Particulars: equal amounts of DUX4-fl and DUX4-s co-transfected in RD cells; FIG. 17C. On the procedure: as §1
To determine whether DUX4 binding might directly regulate transcription of select genes, we cloned the 1.9 kb enhancer and promoter region of the ZSCAN4 gene that includes four DUX4 binding sites as follows: (DUX4 binding sites are underlined.)
The 1.9kb enhancer and promoter region of the ZCAN4 gene that includes the four DUX4 binding sites from ZCAN4 (SEQ ID NO:100) were inserted upstream of the luciferase reporter construct (pGL3 basic luciferase vector) as shown in FIG. 17A. […] Real-time RT-PCR quantitation is reported relative to internal standard RPL13a. All data represent mean+/−SD from at least triplicates.

The subject of series [3] is endogenous retroelement MaLR transcripts. Nature of the series: MaLR expression analysis after lentiviral transduction of primary human myoblasts. Type of series: cell-based. Particulars: lentiviral transduction into primary human myoblasts; real-time RT-PCR relative to RPL13a; FIG. 17E. (In general: In qPCR the cycle at which signal appears reflects the starting amount.)

The test system of series [4] is DUX4-fl target genes in FSHD muscle cells. As to the kind of experiment: Knockdown of DUX4-fl targets in FSHD muscle cells by lentiviral DUX4-s. Type of series: cell-based, human. Particulars: FSHD cultured muscle cells transduced with lenti-DUX4-s, 48 hours of differentiation; real-time RT-PCR; FIG. 21. On the procedure: Simultaneously, cells were transduced by lentivirus carrying DUX4-s or GFP along with 8 μg/mL polybrene. Cells were washed and changed to plain differentiation media after 24 hours. Cells were harvested for RNA after 48 hours of differentiation.
One microgram of total RNA was reverse transcribed into first strand cDNA in a 20 uL reaction using SuperScript III (Invitrogen) and digested with 1 U of RNase H (Invitrogen) for 20 min at 37° C. cDNA was diluted and used for quantitative PCR with iTaq SYBR Green supermix with ROX (Bio-Rad). The relative expression levels of target genes were normalized to those of ribosomal protein L13A (RPL13A) by 2^ΔCt. Undetermined values were equated to zero. Standard deviations from the mean of the ΔCt values were calculated from triplicates. PCR primers used for detecting the transcripts of the selected genes are listed in Supplementary methods.
Real-time RT-PCR quantitation of three DUX4 target genes, (A) PRAMEF1, (B) RFPL2 and (C) MBD3L2 in FSHD cultured muscle cells transduced with lenti-GFP or lenti-DUX4-s or untransduced. Abundance of targets was calculated relative to internal standard RPL13a and then set as percentages relative to the untransduced condition. Values represent mean+/−SEM from three independent experiments.

For series [5], the system named is control human muscle cells. Nature of the series: Expression of DUX4-s in control human muscle cells, apoptosis/toxicity. Type of series: cell-based. Conditions: 48 hrs, data not shown. The source says:
Both the mRNA analysis and the immunodetection indicate that approximately 0.1% of FSHD muscle nuclei express DUX4 mRNA and protein. This could represent transient bursts of expression or stochastic activation of expression that leads to cell death, or both. […] When DUX4 is expressed in control human muscle cells by lenti-viral delivery, the DUX4 protein is distributed relatively homogeneously during the first 24 hrs and then aggregates in nuclear foci at 48 hrs when the cells are undergoing apoptosis (data not shown). These DUX4 nuclear foci associated with apoptosis are present in the nuclei of FSHD muscle cultures.

For series [6], the system named is control human muscle cells. Particulars: cultured human skeletal muscle cells; Geng et al. 2011; cited from earlier work.

B1: DUX4-s: short splice form of DUX4 (SEQ ID NO:68) keeping the N-terminal double-homeobox domains, lacking the C-terminal domain; expressed from vector (protein, listed as Homo sapiens)
chain: MALPTPSDSTLPAEARGRGRRRRLVWTPSQSEALRACFERNPYPGIATRERLAQAIGIPEPRVQIWFQNERSRQLRQHRRESRPWPGRRGPPEGRRKRTAVTGSQTALLLRAFEKDRFPGIAAREELARETGLPESRIQIWFQNRRARHPGQGGRAPAQV
On to B1, for which the “binding to DUX4 core binding site (EMSA)” value in series [1] is listed as “specifically binds the same core binding site as DUX4-fl”. In addition, in series [2], the “activation of luciferase expression” value was “did not activate expression”. Besides, in the series with DUX4-fl, the “effect on DUX4-fl induced luciferase activity” value is given as “diminishes luciferase activity; also recorded: interfered with the activity of DUX4-fl”. Moreover, in series [3], the “upregulation of endogenous MaLR transcripts” value was “No upregulation”. For the same molecule, the “endogenous expression of DUX4-fl target genes (PRAMEF1, RFPL2, MBD3L2)” value in series [4] is listed as “inhibited the endogenous expression of the target genes; also recorded: blocks expression of DUX4-fl target genes”. Moreover, the induction of apoptosis result in series [5] is on record as “does not induce apoptosis”. Besides, the “toxicity of forced over-expression” value in series [6] is given as “not toxic”.
